Consider 19 molecules from patent US20030087827A1 (BOARD OF SUPERVISORS OF LOUISIANA STATE UNIVERSITY AND …, published 2003).

B1: Hexa-L-arginine (peptide)
peptide: H-RRRRRR-OH
notes: no terminal modifications; also called hexamer
B2: Tetra-L-arginine (peptide)
peptide: H-RRRR-OH
notes: no terminal modifications; also called tetramer
B3: Nona-L-arginine (peptide)
peptide: RRRRRRRRR
notes: no terminal modifications; also called nonamer
B4: Hepta-L-arginine (peptide)
peptide: RRRRRRR
notes: no terminal modifications; also called heptamer
B5: Octa-L-arginine (peptide)
peptide: RRRRRRRR
notes: no terminal modifications; also called octamer
B6: Penta-L-arginine (peptide)
peptide: RRRRR
notes: no terminal modifications; also called pentamer; pentameric polyarginine
B7: Ac-LLRVKR-NH2 (peptide)
peptide: Ac-LLRVKR-NH2
notes: L-hexapeptide; also called acetylated and amidated LLRVKR
B8: LLRVKR (peptide)
peptide: H-LLRVKR-OH
notes: L-hexapeptide without terminal groups; also called unmodified LLRVKR

Non-standard residues stand in square brackets, D forms with d. No end group written: not given here.

T1 sequence (P23188 108-714): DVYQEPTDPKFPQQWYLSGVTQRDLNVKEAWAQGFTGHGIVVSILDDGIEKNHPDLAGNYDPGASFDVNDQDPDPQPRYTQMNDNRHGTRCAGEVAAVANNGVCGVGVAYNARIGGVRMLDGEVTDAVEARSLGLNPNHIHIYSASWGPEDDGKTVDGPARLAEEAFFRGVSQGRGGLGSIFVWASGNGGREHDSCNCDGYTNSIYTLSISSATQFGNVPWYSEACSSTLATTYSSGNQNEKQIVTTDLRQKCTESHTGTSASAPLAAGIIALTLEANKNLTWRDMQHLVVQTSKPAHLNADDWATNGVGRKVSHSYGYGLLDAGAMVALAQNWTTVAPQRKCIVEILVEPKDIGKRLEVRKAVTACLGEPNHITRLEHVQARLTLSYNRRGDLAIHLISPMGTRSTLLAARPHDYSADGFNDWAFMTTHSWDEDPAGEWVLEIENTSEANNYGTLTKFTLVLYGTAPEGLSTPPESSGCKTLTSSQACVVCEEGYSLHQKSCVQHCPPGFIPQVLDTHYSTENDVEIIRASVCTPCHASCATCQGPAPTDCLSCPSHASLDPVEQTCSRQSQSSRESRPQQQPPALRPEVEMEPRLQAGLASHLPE

One experiment concerns the target T1, recombinant truncated mouse furin (mouse, UniProt P23188 108-714, N-glycosylated at two of three potential sites).
T1 construct: extracellular domain; Purified by ion exchange and gel permeation; also called recombinant furin; recombinant mouse furin
Briefly: enzyme inhibition, pERTKR-MCA hydrolysis (fluorescence), competitive Ki. From the text: (§1) Inhibition of Furin, PACE4, PC1 and PC2 by Different L-Polyarginine Peptides.
(§2) Each value represents the mean ± S.D. determined from three independent experiments.
The Ki is a dissociation constant, usually derived from enzyme kinetics or from competition with a known ligand. On to [dR][dR][dR][dR][dR][dR] (also called D6R; D-hexa-arginine) [Hexa-D-arginine], for which the inhibition constant (Ki) is 0.106 µM.

For the molecule B1, the inhibitory constant (Ki) turned out to be 0.114 µM.

For the molecule B2, the Ki stood at 6.4 µM.

As to B3, the Ki came out at 0.042 µM.

Turning to B4, the Ki is 0.068 µM.

For the molecule B5, the Ki was 0.061 µM.

Take B6: the Ki was found to be 0.99 µM.

The target of a further experiment is T2, proprotein convertase PC1.
T2 construct: also called PC3
T2 sequence (P63239 111-753): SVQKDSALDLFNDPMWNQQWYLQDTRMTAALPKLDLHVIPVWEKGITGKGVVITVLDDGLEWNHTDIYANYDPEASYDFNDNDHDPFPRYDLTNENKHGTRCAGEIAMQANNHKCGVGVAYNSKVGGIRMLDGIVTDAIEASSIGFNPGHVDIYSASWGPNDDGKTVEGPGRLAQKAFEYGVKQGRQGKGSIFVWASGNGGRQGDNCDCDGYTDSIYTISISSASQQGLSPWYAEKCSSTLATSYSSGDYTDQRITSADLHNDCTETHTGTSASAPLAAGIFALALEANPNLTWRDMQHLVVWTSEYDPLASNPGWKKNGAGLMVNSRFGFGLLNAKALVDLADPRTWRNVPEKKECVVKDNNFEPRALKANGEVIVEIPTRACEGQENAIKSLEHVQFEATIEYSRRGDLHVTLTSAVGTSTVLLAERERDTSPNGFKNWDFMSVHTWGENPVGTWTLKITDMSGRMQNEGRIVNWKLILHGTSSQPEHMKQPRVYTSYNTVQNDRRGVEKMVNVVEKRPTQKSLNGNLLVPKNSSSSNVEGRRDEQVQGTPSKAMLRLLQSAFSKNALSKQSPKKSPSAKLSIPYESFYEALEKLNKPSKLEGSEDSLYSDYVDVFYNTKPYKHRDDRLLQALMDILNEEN
The experiment is described as above.
From the text: as §1, §2
In turn, [dR][dR][dR][dR][dR][dR] (also called D6R; D-hexa-arginine) [Hexa-D-arginine] showed a Ki of 13 µM.

B1 came in with a Ki of 3.9 µM.

For B2, the inhibition constant Ki was > 200 µM.

Molecule B3 yielded a Ki of 12 µM.

B4 displayed a Ki of 5.2 µM.

As to B5, the Ki amounted to 5.1 µM.

The molecule B6 showed a Ki of 14 µM.

The target of another experiment is T3, proprotein convertase PACE4.
T3 construct: Partially purified preparation
T3 sequence (P29122 150-969, species assumed, looked up): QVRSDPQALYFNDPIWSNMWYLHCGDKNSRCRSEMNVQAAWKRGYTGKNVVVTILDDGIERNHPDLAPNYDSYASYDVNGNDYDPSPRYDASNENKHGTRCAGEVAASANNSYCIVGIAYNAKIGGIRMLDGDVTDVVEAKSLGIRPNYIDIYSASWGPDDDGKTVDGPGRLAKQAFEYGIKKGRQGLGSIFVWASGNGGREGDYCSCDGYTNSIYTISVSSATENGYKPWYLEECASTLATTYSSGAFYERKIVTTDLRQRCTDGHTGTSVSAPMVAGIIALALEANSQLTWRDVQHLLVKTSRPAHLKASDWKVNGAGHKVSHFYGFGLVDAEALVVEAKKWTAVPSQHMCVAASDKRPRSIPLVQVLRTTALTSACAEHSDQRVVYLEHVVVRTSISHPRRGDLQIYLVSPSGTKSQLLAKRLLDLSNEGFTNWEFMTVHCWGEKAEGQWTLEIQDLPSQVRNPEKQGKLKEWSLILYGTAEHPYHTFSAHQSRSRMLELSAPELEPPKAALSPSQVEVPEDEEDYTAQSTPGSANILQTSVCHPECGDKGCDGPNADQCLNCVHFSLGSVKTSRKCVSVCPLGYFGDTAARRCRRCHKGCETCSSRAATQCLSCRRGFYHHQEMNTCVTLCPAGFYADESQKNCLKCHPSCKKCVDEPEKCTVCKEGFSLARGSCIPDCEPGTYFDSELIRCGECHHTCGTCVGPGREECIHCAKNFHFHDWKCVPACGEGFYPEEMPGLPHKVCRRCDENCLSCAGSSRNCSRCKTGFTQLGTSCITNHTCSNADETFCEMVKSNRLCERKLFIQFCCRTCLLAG
The experiment is described as above.
From the text: as §1, §2
The molecule [dR][dR][dR][dR][dR][dR] (also called D6R; D-hexa-arginine) [Hexa-D-arginine] came in with an inhibitory constant (Ki) of 0.58 µM.

In the case of B1, the Ki was determined as 0.52 µM.

Turning to B2, the inhibition constant Ki is > 200 µM.

Turning to B3, the inhibition constant Ki worked out at 0.11 µM.

In turn, B4 gave a Ki of 0.24 µM.

In the case of B5, the Ki amounted to 0.15 µM.

For the molecule B6, the Ki was 0.98 µM.

In another experiment the target is T4, proprotein convertase PC2.
T4 sequence (P16519 110-638, species assumed, looked up): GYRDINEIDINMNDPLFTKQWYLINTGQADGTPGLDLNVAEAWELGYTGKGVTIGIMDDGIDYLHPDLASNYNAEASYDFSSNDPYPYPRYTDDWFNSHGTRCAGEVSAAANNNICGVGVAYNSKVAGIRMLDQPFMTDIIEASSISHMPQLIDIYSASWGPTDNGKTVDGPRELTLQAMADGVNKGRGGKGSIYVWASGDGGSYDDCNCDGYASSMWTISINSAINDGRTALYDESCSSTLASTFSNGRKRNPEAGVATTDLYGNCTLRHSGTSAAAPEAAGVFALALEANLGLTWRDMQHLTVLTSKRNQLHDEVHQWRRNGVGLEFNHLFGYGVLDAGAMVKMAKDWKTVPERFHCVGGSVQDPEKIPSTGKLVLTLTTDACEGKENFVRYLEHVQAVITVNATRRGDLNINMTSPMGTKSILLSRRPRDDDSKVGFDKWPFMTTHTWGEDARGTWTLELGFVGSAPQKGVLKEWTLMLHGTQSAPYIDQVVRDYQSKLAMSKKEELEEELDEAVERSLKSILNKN
Description: enzyme inhibition, pERTKR-MCA hydrolysis, ratio of Ki.
Consider B7, for which the “fold smaller Ki than the unmodified peptide LLRVKR” value was ~4 fold.

For a further experiment, the target named is T1, recombinant truncated mouse furin. The experiment is described as above.
Regarding B2, the “fold increase in Ki against the pentamer (penta-L-arginine)” value is ~5 fold.

With B6, the “fold increase in Ki against the hexamer (hexa-L-arginine)” value is ~10 fold.

On to B8, for which the “fold increase in inhibitory potency against the amidated and acetylated peptide Ac-LLRVKR-NH2” value came to 8 fold.

The next experiment concerns the target T2, proprotein convertase PC1. Described as above.
Consider [dR][dR][dR][dR][dR][dR] (also called D6R; D-hexa-arginine) [Hexa-D-arginine], for which the “fold increase in Ki against hexa-L-arginine” value amounted to 3 fold.

The target of another experiment is T3, proprotein convertase PACE4. The experiment is described as above.
Take B6: the “ratio of Ki to that of the hexamer (SEQ ID NO 14)” value was ~2 fold.

The next experiment deals with T4, proprotein convertase PC2. Description: enzyme inhibition, pERTKR-MCA hydrolysis (fluorescence), competitive Ki.
From the text: as §2
For the molecule Ac-RRKRRR-NH2 [Ac-RRKRRR-NH2], affinity was put at a Ki of 461 µM.

In the case of Ac-KHKRRR-NH2 (L-hexapeptide) [Ac-KHKRRR-NH2], the Ki was 280 µM.

In turn, Ac-KRKRRR-NH2 (L-hexapeptide) [Ac-KRKRRR-NH2] had a Ki of 391 µM.

Ac-HRKRRR-NH2 (L-hexapeptide) [Ac-HRKRRR-NH2] came in with an inhibition constant (Ki) of 309 µM.

As for Ac-HHKRRR-NH2 (L-hexapeptide) [Ac-HHKRRR-NH2], affinity was put at a Ki of 235 µM.

Molecule Ac-MHKRRR-NH2 (L-hexapeptide) [Ac-MHKRRR-NH2] yielded an inhibition constant (Ki) of 216 µM.

Turning to Ac-RHKRRR-NH2 (L-hexapeptide) [Ac-RHKRRR-NH2], affinity was put at a Ki of 152 µM.

A further experiment deals with T1, recombinant truncated mouse furin. The description is as above. This is another data set of the same source.
From the text: as §2
Take Ac-RRKRRR-NH2 [Ac-RRKRRR-NH2]: the Ki was determined as 1.3 µM.

Take Ac-KHKRRR-NH2 (L-hexapeptide) [Ac-KHKRRR-NH2]: the Ki stood at 5.2 µM.

On to Ac-KRKRRR-NH2 (L-hexapeptide) [Ac-KRKRRR-NH2], for which the Ki is 1.6 µM.

On to Ac-HRKRRR-NH2 (L-hexapeptide) [Ac-HRKRRR-NH2], for which the Ki was 2.1 µM.

For Ac-MRKRRR-NH2 (L-hexapeptide) [Ac-MRKRRR-NH2], the inhibition constant (Ki) is 2.3 µM.

Regarding Ac-HHKRRR-NH2 (L-hexapeptide) [Ac-HHKRRR-NH2], the inhibitory constant (Ki) turned out to be 13.2 µM.

For the molecule Ac-MHKRRR-NH2 (L-hexapeptide) [Ac-MHKRRR-NH2], the inhibition constant (Ki) amounted to 10.3 µM.

In the case of Ac-RHKRRR-NH2 (L-hexapeptide) [Ac-RHKRRR-NH2], the Ki is 3.4 µM.

Another experiment addresses T4, proprotein convertase PC2. The experiment is described as above. The source holds these as a separate data set.
From the text: (§3) The Effect of N-Terminal Acetyl and C-Terminal Amide Groups on Inhibition. We also examined the effect of the terminal acetyl and amide modifications on inhibitory potency.
as §2
The molecule Ac-LLRVKR-OH (L-hexapeptide, free C-terminus) [Ac-LLRVKR] returned an inhibition constant (Ki) of 1.3 µM.

Take H-LLRVKR-NH2 (L-hexapeptide, free N-terminus) [LLRVKR-NH2]: the inhibitory constant (Ki) came out at 2.3 µM.

Take B8: the affinity, expressed as Ki, was 3.7 µM.

In the case of B7, the affinity corresponds to a Ki of 1 µM.

The target in the next experiment is T1, recombinant truncated mouse furin. Described as above. The source holds these as a separate data set.
From the text: as §3, §2
On to Ac-LLRVKR-OH (L-hexapeptide, free C-terminus) [Ac-LLRVKR], for which the Ki was 3.5 µM.

For the molecule H-LLRVKR-NH2 (L-hexapeptide, free N-terminus) [LLRVKR-NH2], the Ki was 0.8 µM.

B8: the Ki turned out to be 0.42 µM.

Consider B7, for which the inhibition constant Ki is 3.4 µM.
